The record followed here is FireProtDB.

B1: Serine proteinase inhibitor IA-1, Q7M4T6 (parent)
chain: SAGKFIVIFKNDVSEDKIRETKDEVIAEGGTITNEYNMPGMKGFAGELTPQSLTKFQGLQGDLIDSIEEDGIVTTQ
B2: Glypican-1, P35052 (parent)
chain: MELRARGWWLLCAAAALVACARGDPASKSRSCGEVRQIYGAKGFSLSDVPQAEISGEHLRICPQGYTCCTSEMEENLANRSHAELETALRDSSRVLQAMLATQLRSFDDHFQHLLNDSERTLQATFPGAFGELYTQNARAFRDLYSELRLYYRGANLHLEETLAEFWARLLERLFKQLHPQLLLPDDYLDCLGKQAEALRPFGEAPRELRLRATRAFVAARSFVQGLGVASDVVRKVAQVPLGPECSRAVMKLVYCAHCLGVPGARPCPDYCRNVLKGCLANQADLDAEWRNLLDSMVLITDKFWGTSGVESVIGSVHTWLAEAINALQDNRDTLTAKVIQGCGNPKVNPQGPGPEEKRRRGKLAPRERPPSGTLEKLVSEAKAQLRDVQDFWISLPGTLCSEKMALSTASDDRCWNGMARGRYLPEVMGDGLANQINNPEVEVDITKPDMTIRQQIMQLKIMTNRLRSAYNGNDVDFQDASDDGSGSGSGDGCLDDLCSRKVSRKSSSSRTPLTHALPGLSEQEGQKTSAASCPQPPTFLLPLLLFLALTVARPRWR
B3: Cyclin-dependent kinase inhibitor 2A, P42771 (parent)
chain: MEPAAGSSMEPSADWLATAAARGRVEEVRALLEAGALPNAPNSYGRRPIQVMMMGSARVAELLLLHGAEPNCADPATLTRPVHDAAREGFLDTLVVLHRAGARLDVRDAWGRLPVDLAEELGHRDVARYLRAAAGGTRGSNHARIDAAEGPSDIPD
B4: Catalase-peroxidase 2, A4QUT2 (parent)
chain: MHASLSSWLLAASLLTQPISVSGQGCPFAKRDGTVDSSLPQKRADAPETTTFGRCAVKSNQAGGGTRSHDWWPCQLRLDVLRQFQPSQNPLGGDFDYAEAFQSLDYEAVKKDIAALMTESQDWWPADFGNYGGLFVRMAWHSAGTYRAMDGRGGGGMGQQRFAPLNSWPDNQNLDKARRLIWPIKQKYGNKISWADLMLLTGNVALENMGFKTLGFGGGRADTWQSDEAVYWGAETTFVPQGNDVRYNNSVDINARADKLEKPLAATHMGLIYVNPEGPNGTPDPAASAKDIREAFGRMGMNDTETVALIAGGHAFGKTHGAVKGSNIGPAPEAADLGMQGLGWHNSVGDGNGPNQMTSGLEVIWTKTPTKWSNGYLESLINNNWTLVESPAGAHQWEAVNGTVDYPDPFDKTKFRKATMLTSDLALINDPEYLKISQRWLEHPEELADAFAKAWFKLLHRDLGPTTRYLGPEVPKESFIWQDPLPAREGDLIDDADVDKLKAAILSTDGLDVSKLASTAMACATTYRNSDKRGGCNGARIALEPQRNWVSNNPTQLSAVLDALKKVQSDFNGSNGNKKVSLADLIVLGGTAAVEKAAKDAGVDIKVPFSAGRVDATQEQTDVTQFSYLEPQADGFRNYGRGTARARTEEIMVDKASQLTLTPPELTVLVGGMRALGANYDGSDVGVFTANKGKLTPDFFVNLVDMNIAWTASGADGESWVGTDRKSRSEKYKGSRADLVFGSHAELRAIAEVYAENGNQEKFVKDFVAAWTKVMNLDRFDLKVKK

As a reminder, the Tm is the temperature at which the thermal transition is half complete.

The variants in the first data set derive from B1. Conditions: Pleurotus ostreatus; pH 7; Thermal; CD; sodium phosphate 50 mM; whole UniProt chain shown.
On to SAGKFIVIFKNDVSEDKIRETKDEVIAEGGTITNEYNMPGMKGFAGELTPQSLTKAQGLQGDLIDSIEEDGIVTTQ [F56A], for which the melting temperature (Tm) was found to be 46 °C and the “change of melting temperature, mutant - wild type (higher = more stable)” value (shortened to “change of melting temperature, mutant”) is -13 °C.

The variants in the next data set derive from B2. The following applies: Homo sapiens; pH 7; 20 °C; Urea; CD; Sodium Phosphate Buffer; transition: 2; structure 4ACR; whole UniProt chain shown.
In the case of MELRARGWWLLCAAAALVACARGDPASKSRSCGEVRQIYGAKGFSLSDVPQAEISGEHLRICPQGYTCCTSEMEENLAQRSHAELETALRDSSRVLQAMLATQLRSFDDHFQHLLQDSERTLQATFPGAFGELYTQNARAFRDLYSELRLYYRGANLHLEETLAEFWARLLERLFKQLHPQLLLPDDYLDCLGKQAEALRPFGEAPRELRLRATRAFVAARSFVQGLGVASDVVRKVAQVPLGPECSRAVMKLVYCAHCLGVPGARPCPDYCRNVLKGCLANQADLDAEWRNLLDSMVLITDKFWGTSGVESVIGSVHTWLAEAINALQDNRDTLTAKVIQGCGNPKVNPQGPGPEEKRRRGKLAPRERPPSGTLEKLVSEAKAQLRDVQDFWISLPGTLCSEKMALSTASDDRCWNGMARGRYLPEVMGDGLANQINNPEVEVDITKPDMTIRQQIMQLKIMTNRLRSAYNGNDVDFQDASDDGSGSGSGDGCLDDLCSRKVSRKSSSSRTPLTHALPGLSEQEGQKTSAASCPQPPTFLLPLLLFLALTVARPRWR [N79Q N116Q], the “denaturant midpoint (higher = more stable)” value (“denaturant midpoint” for short) is 5.37 M.

The same data set, now with this note: Homo sapiens; pH 7.4; Thermal; CD; Sodium Phosphate Buffer; reversible: no; structure 4ACR; whole UniProt chain shown.
Take MELRARGWWLLCAAAALVACARGDPASKSRSCGEVRQIYGAKGFSLSDVPQAEISGEHLRICPQGYTCCTSEMEENLAQRSHAELETALRDSSRVLQAMLATQLRSFDDHFQHLLQDSERTLQATFPGAFGELYTQNARAFRDLYSELRLYYRGANLHLEETLAEFWARLLERLFKQLHPQLLLPDDYLDCLGKQAEALRPFGEAPRELRLRATRAFVAARSFVQGLGVASDVVRKVAQVPLGPECSRAVMKLVYCAHCLGVPGARPCPDYCRNVLKGCLANQADLDAEWRNLLDSMVLITDKFWGTSGVESVIGSVHTWLAEAINALQDNRDTLTAKVIQGCGNPKVNPQGPGPEEKRRRGKLAPRERPPSGTLEKLVSEAKAQLRDVQDFWISLPGTLCSEKMALSTASDDRCWNGMARGRYLPEVMGDGLANQINNPEVEVDITKPDMTIRQQIMQLKIMTNRLRSAYNGNDVDFQDASDDGSGSGSGDGCLDDLCSRKVSRKSSSSRTPLTHALPGLSEQEGQKTSAASCPQPPTFLLPLLLFLALTVARPRWR [N79Q N116Q]: the melting temperature (Tm) was 66 °C and the “change of melting temperature, mutant” value is -3 °C.

Take MELRARGWWLLCAAAALVACARGDPASKSRSCGEVRQIYGAKGFSLSDVPQAEISGEHLRICPQGYTCCTSEMEENLAQRSHAELETALRDSSRVLQAMLATQLRSFDDHFQHLLNDSERTLQATFPGAFGELYTQNARAFRDLYSELRLYYRGANLHLEETLAEFWARLLERLFKQLHPQLLLPDDYLDCLGKQAEALRPFGEAPRELRLRATRAFVAARSFVQGLGVASDVVRKVAQVPLGPECSRAVMKLVYCAHCLGVPGARPCPDYCRNVLKGCLANQADLDAEWRNLLDSMVLITDKFWGTSGVESVIGSVHTWLAEAINALQDNRDTLTAKVIQGCGNPKVNPQGPGPEEKRRRGKLAPRERPPSGTLEKLVSEAKAQLRDVQDFWISLPGTLCSEKMALSTASDDRCWNGMARGRYLPEVMGDGLANQINNPEVEVDITKPDMTIRQQIMQLKIMTNRLRSAYNGNDVDFQDASDDGSGSGSGDGCLDDLCSRKVSRKSSSSRTPLTHALPGLSEQEGQKTSAASCPQPPTFLLPLLLFLALTVARPRWR [N79Q]: the Tm was found to be 66 °C and the “change of melting temperature, mutant” value worked out at 0 °C.

Variants of B3 are the subject of another data set. The following applies: Homo sapiens; pH 7.5; 25 °C; Urea; CD; Sodium phosphate 15 mM; NaCl 100 mM; reversible: yes; structure 1A5E; whole UniProt chain shown.
On to D84N, for which the denaturant m value is 2 kcal/mol/M and the “denaturant midpoint” value was determined as 1.8 M.

In the case of D74N, the denaturant m value was determined as 1.2 kcal/mol/M and the “denaturant midpoint” value amounted to 1.4 M.

P81L: the denaturant m value is 1.1 kcal/mol/M and the “denaturant midpoint” value was 3.4 M.

Variants of B4 are the subject of another data set. Conditions: Pyricularia oryzae (strain 70-15 / ATCC MYA-4617 / FGSC 8958); pH 7; Thermal; DSC; Phosphate buffer 5 mM; transition: 2; structure 5JHZ; whole UniProt chain shown.
Consider W140F, for which the Tm was 44.8 °C.

In the case of M299A, the Tm worked out at 48.2 °C.

Regarding Y273F, the midpoint of thermal melting (Tm) came to 43.6 °C.
